{"source": "patent US20210155712A1", "target": "human HER4 expressed on HEK293 cells (human) (UniProt Q15303)", "sequence (Q15303 26-1308)": "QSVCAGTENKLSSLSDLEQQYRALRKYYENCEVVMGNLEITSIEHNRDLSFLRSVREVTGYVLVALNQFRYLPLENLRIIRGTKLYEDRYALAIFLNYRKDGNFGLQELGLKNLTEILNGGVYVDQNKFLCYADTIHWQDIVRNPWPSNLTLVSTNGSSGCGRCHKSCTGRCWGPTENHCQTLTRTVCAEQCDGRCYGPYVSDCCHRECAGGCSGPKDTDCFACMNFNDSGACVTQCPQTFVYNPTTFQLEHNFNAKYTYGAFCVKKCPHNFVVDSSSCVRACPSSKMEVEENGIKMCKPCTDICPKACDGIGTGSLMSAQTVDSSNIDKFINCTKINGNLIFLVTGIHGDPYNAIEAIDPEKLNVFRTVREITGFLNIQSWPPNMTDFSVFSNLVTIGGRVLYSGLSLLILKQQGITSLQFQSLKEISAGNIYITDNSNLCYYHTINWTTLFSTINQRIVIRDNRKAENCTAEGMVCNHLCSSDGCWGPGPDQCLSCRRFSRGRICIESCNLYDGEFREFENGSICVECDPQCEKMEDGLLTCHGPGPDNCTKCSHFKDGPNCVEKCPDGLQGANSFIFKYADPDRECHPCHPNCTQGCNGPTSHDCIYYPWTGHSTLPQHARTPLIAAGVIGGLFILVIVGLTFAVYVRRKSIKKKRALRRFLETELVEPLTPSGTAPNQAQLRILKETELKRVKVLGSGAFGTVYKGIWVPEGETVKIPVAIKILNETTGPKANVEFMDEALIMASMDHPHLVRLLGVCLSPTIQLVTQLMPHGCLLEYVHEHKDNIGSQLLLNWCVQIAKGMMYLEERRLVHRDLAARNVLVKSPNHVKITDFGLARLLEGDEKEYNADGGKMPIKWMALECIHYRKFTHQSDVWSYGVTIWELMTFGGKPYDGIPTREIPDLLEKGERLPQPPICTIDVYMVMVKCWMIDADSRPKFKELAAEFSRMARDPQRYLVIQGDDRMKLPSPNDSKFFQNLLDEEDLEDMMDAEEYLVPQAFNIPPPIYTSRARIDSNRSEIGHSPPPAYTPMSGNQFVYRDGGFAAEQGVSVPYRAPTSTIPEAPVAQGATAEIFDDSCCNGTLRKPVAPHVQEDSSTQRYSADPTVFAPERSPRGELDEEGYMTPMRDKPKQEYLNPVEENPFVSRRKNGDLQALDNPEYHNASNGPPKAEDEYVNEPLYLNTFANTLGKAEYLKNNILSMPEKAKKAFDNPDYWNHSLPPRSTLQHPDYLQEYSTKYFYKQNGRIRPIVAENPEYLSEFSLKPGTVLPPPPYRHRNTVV", "test": "flow cytometry, HEK293 HER4 overexpressing cells, PE-A B2-A channel"}
{"binder": "MM-121 (antibody, INN chains, looked up, human IgG2, V domains shown, IgG2/kappa) VH: EVQLLESGGGLVQPGGSLRLSCAASGFTFSHYVMAWVRQAPGKGLEWVSSISSSGGWTLYADSVKGRFTISRDNSKNTLYLQMNSLRAEDTAVYYCTRGLKMATIFDYWGQGTLVTVSS VL: QSALTQPASVSGSPGQSITISCTGTSSDVGSYNVVSWYQQHPGKAPKLIIYEVSQRPSGVSNRFSGSKSGNTASLTISGLQTEDEADYYCCSYAGSSIFVIFGGGTKVTVL", "values": [{"measurement": "% Positive for HER4", "value": 8.73, "unit": "%"}]}
